Biological target: Untagged murine saposin A (SapA) (mouse)
Assay: crystal structure; complex formed at pH 5.0 with the detergent LDAO, SapA:GALC molar ratio 2:1; crystals at 20 °C from 75 mM sodium citrate pH 5.6, 11% PEG 3350; 3.6 Å

A stoichiometry N of 2 was found for “Untagged murine saposin A (SapA) (natural protein)” in this work.

From paper PMC5764952 (2018)
